Test: yeast display, Sf9 membrane polyspecificity reagent, FACS + sequencing; frameworks hold sequencing errors
Outline: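 Genes from sorted yeast were amplified by colony PCR, read by MiSeq 2 × 250 sequencing and filtered on CDR length. These cells carried a synthetic nanobody library in Saccharomyces cerevisiae BJ5465 and were sorted by FACS into low and high (top ~1%) gates on anti-HA and streptavidin fluorescence. Polyreactivity is labelled according to the gate of origin.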

Row | Sequence | polyreactivity (PSR sort gate)
1 | QVQLVESGGGLDQAGGSLRLSSAASGFTFVYYAMGWYRQAPGKERELVAAISWSGGTTYYADSVKGRFTISRDNAKNTVYLQMNSLKPEDTAVYYCNVYPAYIYFDYDYWGQGTQVTVSS | high polyreactivity
2 | QVQLVESGGGLDQAGGSLRLSSAASGSMILHNDMGWYRQAPGKEMELVATIDSAGGTYYADSVKGRFTISRDNAKNTVYLQMNSLKPEDSAVYYCAAYGPYVLSIYDYWGQGTQVTVSS | low polyreactivity
3 | QVQLVESGGGLDQAGGSLRLTCAASGNTSEYYAMGWSRQAPGKERQLVAAIRSDVRTYYADSVKGRFTISRDNAKNTVYLQMNSLKPEDTAVYYCNADKSAWDYYLQTFNYWGQGTQVTVSS | high polyreactivity
4 | QVQLVESGGGLDQAGGSLRLTCAASGSIFRWYAMGWYRQAPGKERELVAAISRGASTNYADSVKGRFTISRDNAKNTVYLKMNSLKPEDTAVYFCAKRTTRLATYDYWGQGTQVTVSS | high polyreactivity
5 | QVQLVESGGGLDQAGGSLRLTCAASGSTFQFYAMGWYRQAPGKERYLVAAISGAGGSTYYADSVKGRFTISRDNAKNTVYLQMNILKPEDTAVYYCNKVRRKQSVLTFDYWGQGTQVTVSS | high polyreactivity
6 | QVQLVESGGGLDQAGGSLRLTCAASRFNFNGYAMGSYSQAPRKERELVAGITSGGRTNYADSVKGRFTISRDNAKNTVYLQMNSLKPEDTAVYYCNRYKVSGYDYWGQGTQVTVSS | high polyreactivity
7 | QVQLVESGGGLDQAGGSLRLTSAASGSTFYRNAMGWYRQAPGKERELVAAITIRGGSTSFADSVKGRFTISRDNAKNTVYLQMNSLKPEDTAVYYCNADPRAEPGDWSYEMDYWGQGTQVTVSS | low polyreactivity
8 | QVQLVESGGGLDQAGGSLRLTWAASGSIIGRNFMGLYRQAPGKEREFLAAIRSSGATTYYADSVKGRFTISRDNAKYTVFLQMTSLKPEDTAVYYCNARPPYYTVQTGGYDYWGQGTQVTVSS | low polyreactivity
9 | QVQLVESGGGLDQAGGSLRVSCAASGSILRYTMGWYRQAPGKERELVAAITRSGTSTYYADSVKGRFTISRDNAKNTVYLQMNSLKPEDTAVYYCAADDHYGRGFQYYYWGQGTQVTVSS | high polyreactivity
10 | QVQLVESGGGLDQAGGSLRVSCAASGSTFHRNAMGWYRQAPGKERELVAAITSGGSTNYADSVKGRFTISRDNAKNTVYLQMNSLNPEDTAVYYCAKDYLHYNRGWYDYWGQGTQVTVSW | low polyreactivity
11 | QVQLVESGGGLDQAGGSRRLSCAASGITFGRNTMGWYRQSPGKERELVASISYSGTTTYYADSVKGRFTISPDNAKNTVYLQMNSLKPEDTAVYYCNKRWRYYDMDYWGQGTQVTVSS | low polyreactivity
12 | QVQLVESGGGLDQAGGSVRLSCAASGSTFDNYAMGWYRQAPGKEREWVAVISRSGTSTYYADSVKGRFTISRDNAKNTVYLQMNSLKPEDTAVYYCASAPSQVYRARFYYWGQGTQVTVSS | high polyreactivity
13 | QVQLVESGGGLDQARGSLRLSCAASGFTFKFYAMGWYRQSPGKEREFVAAISGSGDSTYADSVKGRFTISRDNAKNTVYLQMNSLKPEDTAVYYCNARYAGVPWWGYYSSEVNYWGQGTQVTVSS | low polyreactivity
14 | QVQLVESGGGLDQARGSLRLSCAASGLTFVEYAMGWYRQAPGKESELVADITISGGRTYYADSVKGRFTISRDNAKYTVYLQMNSLKPEDTAVYYCNAQSYLGVTHRGYIKNGYDYWGQGTQVTVSS | low polyreactivity
15 | QVQLVESGGGLDQARGSLRLSCAASGRIFYTYAMGWYRRAPGKERELVAAISRSGTSTYYADSVKGRFTISRDNAKNTVYLQMNSLKPEDTAVYYCAAAKWYSVAYVGTFKYDYWGQGTQVTVSS | high polyreactivity
16 | QVQLVESGGGLDQARGSLRLSCAASGSTFYYYAMGWYRQAPGKERELVAAITSRGGRTYYADSVKGRFTISRDNAKNTVYLQMNSLKPEDTAVYYCNARTIYYGFDYWGQGTQVTVSS | low polyreactivity
17 | QVQLVESGGGLDQEGGSLRLSCAASGSIFFWNDMGWYRQAPGKERELVAAISWSGGSTSYADSVKGRFTISRDNAKNTVYLQMNSLKPEDTAVYYCAAEYTYGSPYDYWGQGTQVTVSS | low polyreactivity
18 | QVQLVESGGGLEQAGGRLRLSCAASGSTFGGYAMGWFRQSPGTERQLVAAISGSGVRTYYADSVKGRFTISRDTAKNTVYLEMNSLNQEDTEVFYCAKRVRYPGDLYYYWGQGTQVTVSW | high polyreactivity
19 | QVQLVESGGGLEQAGGRLRLSCADSRRIFGRYAMGWYRQAPGKERELVAAINQSGSTTYYADSVKGRFTISRDNAKNTVYLQMNSLKPEDTAVYYCAADGNGVDYDYWGQGTQVTVSS | low polyreactivity
20 | QVQLVESGGGLFHAGGSLRLSCAAYGSTFPYYTMGWYRQAPGKERELVAAITTRGGGTYYADSVKGRFTISRDNAKNTVYIQMKSLKPEDTAVYYCAAKTIYYTRGIRHYYWGQVTQVTVSS | high polyreactivity
21 | QVQLVESGGGLFQAGGRLRLSCAASGSIFPPYAMGWYRQAPGKERELVAAINWSGGRTYYADSVKGRFTISRDHPKNTLYLHMNSLKPEDTEDYYGAADLRRYSGEYYYWGQRTQVTVSS | high polyreactivity
22 | QVQLVESGGGLFQAGGRLRLSCAASGYTFYLNAMGWYRQAPGKEREFVAVIDDSGDSTDYADSVKGRFTISRDNAKNTVYLQMHSLKPEDTAVYYCAANEGGTGDDYWGQGTQVTVSS | low polyreactivity
